Molecular target: human β3 homopentameric GABAAR construct (K279T, M3-M4 loop replaced by SQPARAA) (human) (UniProt P28472)
Assay: cryo-EM structure

stoichiometry N: 5
Substance: human β3 homopentameric GABAAR construct (K279T, M3-M4 loop replaced by SQPARAA) (from UniProt P28472 26-473) (receptor)
